Experimental data reported in the supplement of paper PMC10724198.
± gives the standard deviation of the averaged measurements.

Legend:
[1] = tested on: Saccharomyces cerevisiae; assay: protein stability index of tFT-peptide fusion (C-terminal peptide) (PSI (0-1 scale)); higher = more stable (slower turnover); settings: genetic background: wild type; temperature: 30 C
[2] = tested on: Saccharomyces cerevisiae; assay: as above
Method: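 MPS profiling in S. cerevisiae of the tFT-X12 degron library: putative degron peptides plus stable controls, 12 aa, fused to the C-terminus of a sfGFP-mCherry timer. Cells are FACS-sorted into 8 mCherry/sfGFP bins and deep-sequenced. PSI runs from 0 (unstable) to 1 (stable). Backgrounds are wild type, das1Δ and doa10Δ at 30 °C, and wild type, das1Δ, cdc34-1 and cdc53-1 at 37 °C; 2-3 technical replicates each.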

[3] = genetic background: cdc34-1, temperature: 37 C
[4] = genetic background: cdc53-1, temperature: 37 C
[5] = genetic background: das1 deletion, temperature: 30 C
[6] = genetic background: das1 deletion, temperature: 37 C
[7] = genetic background: doa10 deletion, temperature: 30 C
[8] = genetic background: wild type, temperature: 30 C
[9] = genetic background: wild type, temperature: 37 C
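Further: PSI is a weighted mean of sequencing reads over stability bins, variants kept only with over 10 reads, mCherry proximal and sfGFP distal, peptide attached via GGGS linker.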

| Sequence | protein stability index [1] | protein stability index [2, 3] | protein stability index [2, 4] | protein stability index [2, 5] | protein stability index [2, 6] | protein stability index [2, 7] | protein stability index [2, 8] | protein stability index [2, 9] |
| --- | --- | --- | --- | --- | --- | --- | --- | --- |
| GVYFIGISRCVC | 0.307 ± 0.0065 | 0.559 ± 0.006 | 0.642 ± 0.037 | 0.529 ± 0.029 | 0.669 ± 0.0011 | 0.175 ± 0.018 | 0.208 ± 0.025 | 0.36 ± 0.015 |
| GVYRLCLLLLVY | 0.218 ± 0.034 | 0.0836 ± 0.015 | 0.107 ± 0.03 | 0.183 ± 0.014 | 0.239 ± 0.021 | 0.158 ± 0.0074 | 0.156 ± 0.026 | 0.237 ± 0.015 |
| GWRGVVLVFVLV | 0.36784 ± 0.00027 | 0.302 ± 0.0049 | 0.46 ± 0.059 | 0.28 ± 0.027 | 0.47443 ± 1.3e-05 | 0.251 ± 0.012 | 0.269 ± 0.027 | 0.438 ± 0.015 |
| GWSRRFFCLFIV | 0.137 ± 0.002 | 0.203 ± 0.052 | 0.303 ± 0.0019 | 0.345 ± 0.041 | 0.4984 ± 0.0011 | 0.0815 ± 0.015 | 0.0745 ± 0.024 | 0.0793 ± 0.006 |
| GWWCGIGVAVSV | 0.464 ± 0.015 | 0.432 ± 0.039 | 0.461 ± 0.039 | 0.337 ± 0.03 | 0.5114 ± 0.0051 | 0.292 ± 0.0069 | 0.339 ± 0.027 | 0.477 ± 0.01 |
| HHACLLPVRKAG | 0.277 ± 0.027 | 0.636 ± 0.056 | 0.752 ± 0.012 | 0.6526 ± 0.00091 | 0.744 ± 0.0085 | 0.154 ± 0.007 | 0.187 ± 0.0086 | 0.404 ± 0.024 |
| HLAQYSSSLHLM | 0.554 ± 0.085 | 0.657 ± 0.098 | 0.719 ± 0.011 | 0.653 ± 0.0071 | 0.731 ± 0.027 | 0.375 ± 0.022 | 0.424 ± 0.014 | 0.6165 ± 0.0024 |
| HPPPPPPPPSLS | 0.513 ± 0.062 | 0.673 ± 0.038 | 0.715 ± 0.0098 | 0.666 ± 0.028 | 0.7362 ± 0.0017 | 0.677 ± 0.029 | 0.67 ± 0.013 | 0.7037 ± 0.002 |
| IACVLSIFLNAA | 0.44 ± 0.054 | 0.325 ± 0.0071 | 0.435 ± 0.051 | 0.292 ± 0.039 | 0.435 ± 0.0047 | 0.2559 ± 0.0013 | 0.274 ± 0.031 | 0.436 ± 0.0094 |
| ICQFFFFALLSF | 0.178 ± 0.013 | 0.109 ± 0.04 | 0.0674 ± 0.0054 | 0.164 ± 0.016 | 0.244 ± 0.021 | 0.238 ± 0.011 | 0.128 ± 0.018 | 0.19 ± 0.0063 |
| IDSEVHLWKRSA | 0.336 ± 0.058 | 0.618 ± 0.046 | 0.725 ± 0.012 | 0.642 ± 0.017 | 0.719 ± 0.037 | 0.16 ± 0.016 | 0.176 ± 0.027 | 0.405 ± 0.011 |
| IFAVLVSGSFFF | 0.4288 ± 0.00067 | 0.425 ± 0.018 | 0.541 ± 0.014 | 0.324 ± 0.051 | 0.545 ± 0.017 | 0.318 ± 0.0053 | 0.336 ± 0.041 | 0.509 ± 0.017 |
| IFLGFGPLFGRL | 0.777 ± 0.034 | 0.862 ± 0.044 | 0.878 ± 0.011 | 0.727 ± 0.03 | 0.817 ± 0.034 | 0.726 ± 0.037 | 0.73 ± 0.0083 | 0.824 ± 0.03 |
| IGSFFLFFLLIF | 0.384 ± 0.02 | 0.281 ± 0.025 | 0.291 ± 0.029 | 0.3 ± 0.025 | 0.383 ± 0.0054 | 0.354 ± 0.027 | 0.245 ± 0.045 | 0.3726 ± 0.0017 |
| IIIGTLLYVNVR | 0.29 ± 0.022 | 0.279 ± 0.0059 | 0.323 ± 0.033 | 0.243 ± 0.03 | 0.403 ± 0.012 | 0.188 ± 0.018 | 0.215 ± 0.029 | 0.39 ± 0.041 |
| IKRLKEVARHVS | 0.44 ± 0.054 | 0.623 ± 0.057 | 0.706 ± 0.017 | 0.645 ± 0.03 | 0.694 ± 0.0085 | 0.265 ± 0.019 | 0.256 ± 0.031 | 0.4381 ± 0.0021 |
| ILGQSVIMRIKM | 0.714 ± 0.075 | 0.673 ± 0.035 | 0.7301 ± 0.0028 | 0.615 ± 0.027 | 0.7007 ± 0.00077 | 0.606 ± 0.0061 | 0.636 ± 0.02 | 0.686 ± 0.014 |
| ILLICLQFFNLF | 0.4481 ± 0.0036 | 0.427 ± 0.057 | 0.544 ± 0.012 | 0.394 ± 0.035 | 0.5269 ± 0.0039 | 0.3502 ± 0.00069 | 0.36 ± 0.018 | 0.505 ± 0.0075 |
| ILRIYIPRWRRQ | 0.219 ± 0.087 | 0.648 ± 0.069 | 0.6821 ± 0.0054 | 0.62 ± 0.02 | 0.7292 ± 0.0032 | 0.119 ± 0.032 | 0.132 ± 0.035 | 0.332 ± 0.0091 |
| INKKKKMIITKI | 0.427 ± 0.019 | 0.617 ± 0.11 | 0.726 ± 0.011 | 0.662 ± 0.073 | 0.742 ± 0.063 | 0.227 ± 0.0025 | 0.253 ± 0.043 | 0.479 ± 0.015 |
| IPRSCRIRLAVL | 0.359 ± 0.014 | 0.658 ± 0.03 | 0.715 ± 0.0073 | 0.562 ± 0.032 | 0.7175 ± 0.0055 | 0.254 ± 0.0096 | 0.271 ± 0.027 | 0.359 ± 0.021 |
| IQICLNRLRLFH | 0.4361 ± 0.0038 | 0.654 ± 0.024 | 0.7 ± 0.01 | 0.63 ± 0.016 | 0.7002 ± 0.0018 | 0.251 ± 0.016 | 0.305 ± 0.02 | 0.573 ± 0.043 |
| IRACGCSFLWVC | 0.192 ± 0.035 | 0.465 ± 0.048 | 0.63 ± 0.01 | 0.5 ± 0.026 | 0.678 ± 0.0079 | 0.1113 ± 0.00066 | 0.106 ± 0.0056 | 0.118 ± 0.015 |
| IRLCAASFMVVF | 0.474 ± 0.017 | 0.501 ± 0.025 | 0.55 ± 0.03 | 0.414 ± 0.023 | 0.5352 ± 0.0027 | 0.3904 ± 0.0034 | 0.405 ± 0.023 | 0.524 ± 0.014 |
| IRSRGLLIRWLS | 0.182 ± 0.015 | 0.52 ± 0.025 | 0.679 ± 0.023 | 0.616 ± 0.026 | 0.721 ± 0.011 | 0.0894 ± 0.0094 | 0.0994 ± 0.033 | 0.148 ± 0.015 |
| IVCAVTSIFLFF | 0.315 ± 0.021 | 0.306 ± 0.015 | 0.45 ± 0.0079 | 0.288 ± 0.014 | 0.452 ± 0.016 | 0.243 ± 0.01 | 0.249 ± 0.035 | 0.422 ± 0.0045 |
| IVRSLFGYLCVV | 0.467 ± 0.037 | 0.571 ± 0.0099 | 0.609 ± 0.0076 | 0.524 ± 0.015 | 0.633 ± 0.0095 | 0.427 ± 0.0099 | 0.437 ± 0.022 | 0.569 ± 0.0066 |
| KCVVMFFLRSVS | 0.5 ± 0.026 | 0.636 ± 0.024 | 0.6956 ± 0.0065 | 0.529 ± 0.037 | 0.676 ± 0.022 | 0.396 ± 0.012 | 0.412 ± 0.011 | 0.598 ± 0.011 |
| KFFRSWVLTSPA | 0.494 ± 0.057 | 0.585 ± 0.06 | 0.607 ± 0.015 | 0.427 ± 0.032 | 0.6157 ± 0.0025 | 0.41 ± 0.021 | 0.444 ± 0.018 | 0.609 ± 0.021 |
| KFRGMTLRNKVC | 0.267 ± 0.013 | 0.545 ± 0.041 | 0.73 ± 0.047 | 0.657 ± 0.019 | 0.717 ± 0.017 | 0.093 ± 0.0025 | 0.1 ± 0.04 | 0.224 ± 0.069 |
